Where a chain is given by its changes, count along the chain named.
Legend:
[1] = biological target: T1, mSNAPc#2 5Mu Y389A;R445A;R151A;K194A;W350A (Homo sapiens) (UniProt Q5SXM2+Q92966+Q16533+O75971); assay: SPR; conditions: EMSA: 100 mM KCl, 25 mM HEPES-K pH 7.6, 12.5 mM MgCl2, 10 uM ZnCl2, 0.1 mM EDTA, 10% glycerol, 3 mM DTT, 0.5 mM PMSF, 50 nM DNA, RT 30 min; SPR: 100 mM KCl, 12.
T1 sequence 1: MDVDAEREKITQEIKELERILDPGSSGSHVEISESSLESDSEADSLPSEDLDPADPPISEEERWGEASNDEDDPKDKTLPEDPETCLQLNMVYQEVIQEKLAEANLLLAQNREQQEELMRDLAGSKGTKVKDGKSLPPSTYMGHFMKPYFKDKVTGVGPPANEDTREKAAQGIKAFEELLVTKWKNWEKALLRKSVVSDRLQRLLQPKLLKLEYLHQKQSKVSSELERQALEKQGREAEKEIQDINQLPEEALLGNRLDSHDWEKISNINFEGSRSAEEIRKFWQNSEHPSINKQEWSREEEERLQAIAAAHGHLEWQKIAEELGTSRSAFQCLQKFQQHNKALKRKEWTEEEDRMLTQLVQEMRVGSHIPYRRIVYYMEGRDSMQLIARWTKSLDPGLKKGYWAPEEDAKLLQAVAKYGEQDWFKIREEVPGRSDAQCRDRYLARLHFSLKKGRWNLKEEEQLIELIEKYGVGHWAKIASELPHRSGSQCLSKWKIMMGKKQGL
T1 sequence 2: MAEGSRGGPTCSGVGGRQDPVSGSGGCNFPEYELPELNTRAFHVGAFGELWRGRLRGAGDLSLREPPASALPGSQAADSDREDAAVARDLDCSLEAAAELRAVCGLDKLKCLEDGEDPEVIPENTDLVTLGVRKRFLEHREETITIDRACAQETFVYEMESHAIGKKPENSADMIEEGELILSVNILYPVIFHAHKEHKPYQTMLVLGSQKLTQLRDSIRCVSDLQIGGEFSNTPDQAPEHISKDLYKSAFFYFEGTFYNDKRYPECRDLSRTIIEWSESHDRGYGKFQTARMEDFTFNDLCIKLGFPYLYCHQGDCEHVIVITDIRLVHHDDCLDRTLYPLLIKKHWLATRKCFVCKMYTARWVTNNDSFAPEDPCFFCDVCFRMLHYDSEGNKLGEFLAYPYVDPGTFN
T1 sequence 3: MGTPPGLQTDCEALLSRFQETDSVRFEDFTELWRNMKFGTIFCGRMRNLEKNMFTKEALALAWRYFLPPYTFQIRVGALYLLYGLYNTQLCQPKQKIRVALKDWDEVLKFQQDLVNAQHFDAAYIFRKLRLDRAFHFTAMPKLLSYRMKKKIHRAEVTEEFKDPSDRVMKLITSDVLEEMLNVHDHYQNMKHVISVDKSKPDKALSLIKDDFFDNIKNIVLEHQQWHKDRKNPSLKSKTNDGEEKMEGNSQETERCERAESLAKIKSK
T1 sequence 4: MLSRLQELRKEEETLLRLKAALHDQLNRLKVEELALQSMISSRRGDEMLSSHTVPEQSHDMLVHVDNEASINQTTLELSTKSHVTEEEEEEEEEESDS

[2] = biological target: T2, mSNAPc#2 4Mu Y389A;R445A;R151A;W350A (Homo sapiens) (UniProt Q5SXM2+Q92966+Q16533+O75971); assay: SPR; conditions: EMSA: 100 mM KCl, 25 mM HEPES-K pH 7.6, 12.5 mM MgCl2, 10 uM ZnCl2, 0.1 mM EDTA, 10% glycerol, 3 mM DTT, 0.5 mM PMSF, 50 nM DNA, RT 30 min; SPR: 100 mM KCl, 12.
T2 sequence 1: T1 sequence 1
T2 sequence 2: T1 sequence 2 with A194K
T2 sequence 3: T1 sequence 3
T2 sequence 4: T1 sequence 4

mSNAPc#11 (rod module) = biological target: T3, mSNAPc#11 (rod module) (Homo sapiens, UniProt Q5SXM2;Q16533;O75971 1-143;148-268;1-98); assay: EMSA; 200 and 800 nM protein; EMSA: 100 mM KCl, 25 mM HEPES-K pH 7.6, 12.5 mM MgCl2, 10 uM ZnCl2, 0.1 mM EDTA, 10% glycerol, 3 mM DTT, 0.5 mM PMSF, 50 nM DNA, RT 30 min; SPR: 100 mM KCl, 12.5 mM MgCl2, 10 uM ZnCl2, 0.1 mM EDTA, 0.05% P20, 25 C; conditions: protein: recombinant; tags: Strep SNAP19; MBP SNAP190; MBP N-term SNAP43; copies: 1;1;1; label: 5'-FAM on positive strand (EMSA)
T3 sequence 1: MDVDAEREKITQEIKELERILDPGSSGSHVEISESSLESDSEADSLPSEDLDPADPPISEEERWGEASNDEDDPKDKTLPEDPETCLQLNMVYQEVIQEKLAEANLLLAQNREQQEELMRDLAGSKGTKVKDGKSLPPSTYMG
T3 sequence 2: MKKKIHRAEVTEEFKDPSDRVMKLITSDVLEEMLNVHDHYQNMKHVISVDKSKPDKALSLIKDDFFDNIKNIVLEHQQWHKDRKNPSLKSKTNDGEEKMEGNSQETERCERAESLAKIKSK
T3 sequence 3: T1 sequence 4

mSNAPc#2 WT = biological target: T4, mSNAPc#2 WT (Homo sapiens, UniProt Q5SXM2;Q92966;Q16533;O75971 1-505;1-411;1-268;1-98); assay: EMSA; 200 and 1000 nM protein; EMSA: 100 mM KCl, 25 mM HEPES-K pH 7.6, 12.5 mM MgCl2, 10 uM ZnCl2, 0.1 mM EDTA, 10% glycerol, 3 mM DTT, 0.5 mM PMSF, 50 nM DNA, RT 30 min; SPR: 100 mM KCl, 12.5 mM MgCl2, 10 uM ZnCl2, 0.1 mM EDTA, 0.05% P20, 25 C; conditions: protein: recombinant; tags: FLAG N-term SNAP190; 6xHis N-term SNAP43; copies: 1;1;1;1; label: 5'-FAM
T4 sequence 1: T1 sequence 1 with A389Y, A445R
T4 sequence 2: T1 sequence 2 with A151R, A194K, A350W
T4 sequence 3: T1 sequence 3
T4 sequence 4: T1 sequence 4

Molecule: TGCTTACCGTAACTTGAAAGTATTT (double strand) [25 bp hU6-1 PSE (SPR)]
- Kd [1]: 49 µM
- Kd [2]: 8.91 µM

B1: 25 bp hU6-1 PSE (dsDNA)
DNA 1: TGCTTACCGTAACTTGAAAGTATTT
DNA 2: AAATACTTTCAAGTTACGGTAAGCA
- binding result (mSNAPc#11 (rod module)): no binding

B2: PSE 6Sub (dsDNA)
DNA 1: TGCTTACCTGAACTTGCCATCATTT
DNA 2: AAATGATGGCAAGTTCAGGTAAGCA
- binding result (mSNAPc#2 WT): no binding

B3: PSE 8Sub (dsDNA)
DNA 1: TGCTTACATGAACTTCCCATCATTT
DNA 2: AAATGATGGGAAGTTCATGTAAGCA
- binding result (mSNAPc#2 WT): no binding
